According to patent US20100297606A1 (KAGOSHIMA UNIVERSITY, published 2010):
Positions of bridges follow the written chain, without caps; N, C: chain ends. No end group written: not given here. *: point of attachment. Biotin = O=C1N[C@H]2[C@H](CS[C@H]2CCCCC(=O)*)N1

B1: synthetic peptide IMGpep-1CS (peptide)
peptide: {Biotin-LC}-GSGYWRSEWGLSG
notes: Both Cys of IMGpep-1 replaced by Ser; linear control peptide; also called biotinylated IMGpep-1CS

Experiments:
[1] = biological target: T1, human transferrin (human, UniProt P02787 20-698); test: ELISA on coated protein; biotinylated peptide premixed 4:1 with SA-AP; absorbance
T1 construct: Control protein; also called hTF; ThF
Description: (§1) The binding activity of the thus obtained biotinylated synthetic peptides to human IgG was assayed by an ELISA assay. […] Specifically, wells coated with human IgG (100 ng/50 μl/well) were blocked by the addition of 0.5% BSA. A biotinylated synthetic peptide and alkaline phosphatase-labeled streptavidin (SA-AP) were mixed in advance at a molar ratio of 4:1 and then the mixture was added to the well, followed by 1 hour of reaction. Para-nitrophenyl phosphate (Wako) was used for color development. Detection was carried out by measuring absorbance at 405 nm. As a positive control of human IgG, the Fc fragment of hIgG was used. As other control proteins, human IgA and IgE, mouse IgG, IgA, and IgE, hTF, fetal bovine serum (FBS), HSA, BSA, and gelatin were used.

[2] = biological target: T2, human serum albumin (human, UniProt P02768 25-609); test: as above
T2 construct: Control protein; also called HSA
Description: as §1

[3] = biological target: T3, bovine serum albumin (bovine, UniProt P02769 25-607); test: as above
T3 construct: Control protein; also called BSA
Description: as §1

[4] = biological target: T4, polyclonal human IgG antibody (serum-derived) (human); test: SPR (BIAcore2000, 25 C), biotinylated peptide on SA chip, human IgG as analyte (41 to 660 nM)
T4 construct: also called hIgG
Description: SPR analysis was carried out using BIAcore2000 (BIAcore) at 25° C. Necessary reagents and sensor chips were purchased from BIAcore and then used. […] The amount of each peptide to be immobilized was adjusted so that the RU (response unit) ranged from 1500 to 2000. […] Binding reaction between human IgG and the peptides was measured. Thereafter, washing with running buffer (HBS-T) was conducted and then dissociation reaction was measured. For washing/elution of bound analytes from the sensor chips, 0.2 M glycine-HCl buffer (pH 2.7) was used. Binding parameters were analyzed using BIA evaluation Version 3.2 software.

[5] = biological target: T5, anti-HER2 human antibody (Herceptin), acid-treated; test: SPR, peptides on sensor chips, antibody 250 nM; acid treatment pH 2.1, 20 C, 10 min; reference Fc-III peptide
T5 construct: Same antibody as m38 after acid treatment and neutralisation; also called acid-treated anti-HER2 human IgG; acid-denatured anti-HER2 human IgG
Description: (§2) For this SPR analysis, human IgG samples were prepared via acid treatment under various conditions as described below and then tested. […] Subsequently, 30 μl (or 20 μl for a sample to which glycine-HCl with pH 2.7 had been added) of 1 M Tris-HCl (pH 8.7) was added to each solution for neutralization.

[6] = biological target: T5, anti-HER2 human antibody (Herceptin), …; test: SPR, peptides on sensor chips, antibody 250 nM; acid treatment pH 2.1, 40 C, 10 min; reference Fc-III peptide
Description: as §2

[7] = biological target: T5, anti-HER2 human antibody (Herceptin), …; test: SPR, peptides on sensor chips, antibody 250 nM; acid treatment pH 2.7, 20 C, 10 min; reference Fc-III peptide
Description: as §2

[8] = biological target: T5, anti-HER2 human antibody (Herceptin), …; test: SPR, peptides on sensor chips, antibody 250 nM; acid treatment pH 2.7, 30 C, 10 min; reference Fc-III peptide
Description: as §2

[9] = biological target: T5, anti-HER2 human antibody (Herceptin), …; test: SPR, peptides on sensor chips, antibody 250 nM; acid treatment pH 2.7, 40 C, 10 min; reference Fc-III peptide
Description: as §2

T1 sequence (P02787 20-698 limits assumed): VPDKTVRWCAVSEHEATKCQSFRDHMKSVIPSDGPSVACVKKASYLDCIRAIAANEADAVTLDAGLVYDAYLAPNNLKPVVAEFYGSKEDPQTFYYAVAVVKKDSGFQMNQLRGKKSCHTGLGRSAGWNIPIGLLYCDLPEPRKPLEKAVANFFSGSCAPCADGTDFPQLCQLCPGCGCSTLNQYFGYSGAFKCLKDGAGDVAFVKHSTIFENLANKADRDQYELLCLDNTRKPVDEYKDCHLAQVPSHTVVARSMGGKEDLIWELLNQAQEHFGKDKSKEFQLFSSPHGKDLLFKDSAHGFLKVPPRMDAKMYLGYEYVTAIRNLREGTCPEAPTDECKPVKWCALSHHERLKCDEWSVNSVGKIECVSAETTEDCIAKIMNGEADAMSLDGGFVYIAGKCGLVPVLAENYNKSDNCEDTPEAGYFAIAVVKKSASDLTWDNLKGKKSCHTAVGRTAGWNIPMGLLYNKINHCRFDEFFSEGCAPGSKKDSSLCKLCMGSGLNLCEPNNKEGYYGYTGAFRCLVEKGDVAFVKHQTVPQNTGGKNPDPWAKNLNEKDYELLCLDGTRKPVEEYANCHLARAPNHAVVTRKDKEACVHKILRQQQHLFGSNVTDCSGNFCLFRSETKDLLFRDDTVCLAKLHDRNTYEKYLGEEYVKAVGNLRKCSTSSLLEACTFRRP
T3 sequence (P02769 25-607 limits assumed): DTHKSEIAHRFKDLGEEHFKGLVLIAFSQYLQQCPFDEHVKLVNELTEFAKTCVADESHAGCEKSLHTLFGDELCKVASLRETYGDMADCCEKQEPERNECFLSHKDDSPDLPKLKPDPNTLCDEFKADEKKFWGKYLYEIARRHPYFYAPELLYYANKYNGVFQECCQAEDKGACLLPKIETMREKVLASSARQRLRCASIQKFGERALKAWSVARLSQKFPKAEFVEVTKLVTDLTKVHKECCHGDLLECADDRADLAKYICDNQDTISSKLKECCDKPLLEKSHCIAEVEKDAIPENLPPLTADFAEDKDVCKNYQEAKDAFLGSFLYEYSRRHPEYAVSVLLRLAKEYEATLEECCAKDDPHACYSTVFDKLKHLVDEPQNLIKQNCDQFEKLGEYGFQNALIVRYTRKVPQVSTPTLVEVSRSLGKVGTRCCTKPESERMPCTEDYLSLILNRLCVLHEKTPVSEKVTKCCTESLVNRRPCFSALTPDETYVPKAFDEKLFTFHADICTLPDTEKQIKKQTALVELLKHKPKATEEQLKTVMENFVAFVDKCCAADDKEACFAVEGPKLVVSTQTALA

| Binder | binding result [1] | binding result [2] | binding result [3] | Kd [4] | koff [4] | kon [4] | generation rate of acid-denatured IgG (ratio a/b of the SPR response on the IMGpep-4K6R chip to that on the Fc-III chip) [5] | generation rate of acid-denatured IgG (ratio a/b of the SPR response on the IMGpep-4K6R chip to that on the Fc-III chip) [6] | generation rate of acid-denatured IgG (ratio a/b of the SPR response on the IMGpep-4K6R chip to that on the Fc-III chip) [7] | generation rate of acid-denatured IgG (ratio a/b of the SPR response on the IMGpep-4K6R chip to that on the Fc-III chip) [8] | generation rate of acid-denatured IgG (ratio a/b of the SPR response on the IMGpep-4K6R chip to that on the Fc-III chip) [9] |
| --- | --- | --- | --- | --- | --- | --- | --- | --- | --- | --- | --- |
| {Biotin-LC}-GCTGYWPKAWGLCG (disulfide 2-13 (inferred), also called biotinylated IMGpep-4) [synthetic peptide IMGpep-4] | no binding | no binding | no binding | 0.028 µM | 0.00041 s⁻¹ | 14000 M⁻¹ s⁻¹ | – | – | – | – | – |
| GCTGYWPRAWGLCG (disulfide 2-13 (inferred); not fully specified (N-terminus), also called biotinylated IMGpep-4K6R) [synthetic peptide IMGpep-4K6R] | no binding | no binding | no binding | 0.024 µM | – | – | 7.8% | ~40% | ~5% | 9.7% | 40% |
| {Biotin-LC}-GCGYWRSEWGLCG (disulfide 2-12 (inferred), also called biotinylated IMGpep-1) [synthetic peptide IMGpep-1] | no binding | – | no binding | 0.017 µM | 0.00034 s⁻¹ | 20000 M⁻¹ s⁻¹ | – | – | – | – | – |
| {Biotin-LC}-GCGYWRSQWGLCG (disulfide 2-12 (inferred), also called biotinylated IMGpep-1E6Q) [synthetic peptide IMGpep-1E6Q] | no binding | no binding | no binding | 0.021 µM | 0.00031 s⁻¹ | 15000 M⁻¹ s⁻¹ | – | – | – | – | – |
| B1 | no binding | no binding | no binding | – | – | – | – | – | – | – | – |
